Measured values as given in publication PMC6170708.

How the values were obtained:
[1] = biological target: recombinant HBcAg assembly domain dimer (construct Cp1–149.C48A.C107A) (Hepatitis B virus (strain not stated)) (UniProt P03147); assay: AUC
[2] = biological target: recombinant HBeAg dimer (construct Cp(−10) 149 C48A.C107A) (Hepatitis B virus (strain not stated)) (UniProt P03147); assay: AUC

Row | Substance | stoichiometry N [1] | percent of dimers converted to capsids (the pair that is blocked) [2] [%]
1 | recombinant HBcAg assembly domain dimer (construct Cp1–149.C48A.C107A) (from UniProt P03147 1-149) (domain or fragment) | 2 | –
2 | recombinant HBeAg dimer (construct Cp(−10) 149 C48A.C107A) (from UniProt P03147 1-149) (domain or fragment) | – | 40
